14 substances from US20160304570A1 can be followed below.

Like-named read-outs stand apart in the source and are kept apart here.

Among the targets are human Nav1.3 (human) (UniProt Q9NY46); human Nav1.5 (human) (UniProt Q14524); human Nav1.7 (human) (UniProt Q15858).
Holding throughout (assay): cell-based or functional assay
The target in assay [1] is human Nav1.5 voltage-gated sodium channel (human) (UniProt Q14524).
Assay [2] deals with human voltage-gated sodium channel Nav1.3 (human) (UniProt Q9NY46).
The target in assay [3] is human voltage-gated sodium channel Nav1.5 (human) (UniProt Q14524).
Assay [4] has as its target human voltage-gated sodium channel Nav1.7 (human) (UniProt Q15858).
For assay [5], the target named is human voltage-gated sodium channel Nav1.3 (human) (UniProt Q9NY46). This is another data set of the same source.
For assay [6] the target is unchanged. This is another data set of the same source.
Assay [7] deals with human voltage-gated sodium channel Nav1.5 (human) (UniProt Q14524). The source holds these as a separate data set.
In assay [8] the target is human voltage-gated sodium channel Nav1.7 (human) (UniProt Q15858). The source holds these as a separate data set.
For assay [9], the target named is human voltage-gated sodium channel Nav1.3 (human) (UniProt Q9NY46). This is another data set of the same source.
Assay [10] deals with human voltage-gated sodium channel Nav1.5 (human) (UniProt Q14524). This is another data set of the same source.
The target in assay [11] is human voltage-gated sodium channel Nav1.7 (human) (UniProt Q15858). The source holds these as a separate data set.
The target in assay [12] is human voltage-gated sodium channel Nav1.3 (human) (UniProt Q9NY46). The source holds these as a separate data set.
Assay [13] has as its target human voltage-gated sodium channel Nav1.5 (human) (UniProt Q14524). The source holds these as a separate data set.
The target of assay [14] is human voltage-gated sodium channel Nav1.7 (human) (UniProt Q15858). This is another data set of the same source.
The target in assay [15] is human voltage-gated sodium channel Nav1.3 (human) (UniProt Q9NY46). This is another data set of the same source.
Assay [16] concerns the target human voltage-gated sodium channel Nav1.5 (human) (UniProt Q14524). This is another data set of the same source.
Assay [17] has as its target human voltage-gated sodium channel Nav1.7 (human) (UniProt Q15858). This is another data set of the same source.
Assay [18] addresses human Nav1.3 voltage-gated sodium channel (human) (UniProt Q9NY46).
Assay [19] has as its target human Nav1.5 voltage-gated sodium channel (human) (UniProt Q14524). The source holds these as a separate data set.
Assay [20] addresses human Nav1.7 voltage-gated sodium channel (human) (UniProt Q15858).
Assay [21] has as its target human ERG (hERG) potassium channel (human) (UniProt Q12809).
In assay [22] the target is human Nav1.3 voltage-gated sodium channel (human) (UniProt Q9NY46). The source holds these as a separate data set.
Assay [23] has as its target human Nav1.7 voltage-gated sodium channel (human) (UniProt Q15858). This is another data set of the same source.
Assay [24] addresses human voltage-gated sodium channel Nav1.3 (human) (UniProt Q9NY46). The source holds these as a separate data set.
Assay [25] addresses human voltage-gated sodium channel Nav1.5 (human) (UniProt Q14524). This is another data set of the same source.
The target in assay [26] is human voltage-gated sodium channel Nav1.7 (human) (UniProt Q15858). The source holds these as a separate data set.
The target of assay [27] is human Nav1.4 voltage-gated sodium channel (human) (UniProt P35499).
For assay [28], the target named is human voltage-gated sodium channel Nav1.4 (human) (UniProt P35499).

human Nav1.3 voltage-gated sodium channel (human), sequence (Q9NY46 whole entry): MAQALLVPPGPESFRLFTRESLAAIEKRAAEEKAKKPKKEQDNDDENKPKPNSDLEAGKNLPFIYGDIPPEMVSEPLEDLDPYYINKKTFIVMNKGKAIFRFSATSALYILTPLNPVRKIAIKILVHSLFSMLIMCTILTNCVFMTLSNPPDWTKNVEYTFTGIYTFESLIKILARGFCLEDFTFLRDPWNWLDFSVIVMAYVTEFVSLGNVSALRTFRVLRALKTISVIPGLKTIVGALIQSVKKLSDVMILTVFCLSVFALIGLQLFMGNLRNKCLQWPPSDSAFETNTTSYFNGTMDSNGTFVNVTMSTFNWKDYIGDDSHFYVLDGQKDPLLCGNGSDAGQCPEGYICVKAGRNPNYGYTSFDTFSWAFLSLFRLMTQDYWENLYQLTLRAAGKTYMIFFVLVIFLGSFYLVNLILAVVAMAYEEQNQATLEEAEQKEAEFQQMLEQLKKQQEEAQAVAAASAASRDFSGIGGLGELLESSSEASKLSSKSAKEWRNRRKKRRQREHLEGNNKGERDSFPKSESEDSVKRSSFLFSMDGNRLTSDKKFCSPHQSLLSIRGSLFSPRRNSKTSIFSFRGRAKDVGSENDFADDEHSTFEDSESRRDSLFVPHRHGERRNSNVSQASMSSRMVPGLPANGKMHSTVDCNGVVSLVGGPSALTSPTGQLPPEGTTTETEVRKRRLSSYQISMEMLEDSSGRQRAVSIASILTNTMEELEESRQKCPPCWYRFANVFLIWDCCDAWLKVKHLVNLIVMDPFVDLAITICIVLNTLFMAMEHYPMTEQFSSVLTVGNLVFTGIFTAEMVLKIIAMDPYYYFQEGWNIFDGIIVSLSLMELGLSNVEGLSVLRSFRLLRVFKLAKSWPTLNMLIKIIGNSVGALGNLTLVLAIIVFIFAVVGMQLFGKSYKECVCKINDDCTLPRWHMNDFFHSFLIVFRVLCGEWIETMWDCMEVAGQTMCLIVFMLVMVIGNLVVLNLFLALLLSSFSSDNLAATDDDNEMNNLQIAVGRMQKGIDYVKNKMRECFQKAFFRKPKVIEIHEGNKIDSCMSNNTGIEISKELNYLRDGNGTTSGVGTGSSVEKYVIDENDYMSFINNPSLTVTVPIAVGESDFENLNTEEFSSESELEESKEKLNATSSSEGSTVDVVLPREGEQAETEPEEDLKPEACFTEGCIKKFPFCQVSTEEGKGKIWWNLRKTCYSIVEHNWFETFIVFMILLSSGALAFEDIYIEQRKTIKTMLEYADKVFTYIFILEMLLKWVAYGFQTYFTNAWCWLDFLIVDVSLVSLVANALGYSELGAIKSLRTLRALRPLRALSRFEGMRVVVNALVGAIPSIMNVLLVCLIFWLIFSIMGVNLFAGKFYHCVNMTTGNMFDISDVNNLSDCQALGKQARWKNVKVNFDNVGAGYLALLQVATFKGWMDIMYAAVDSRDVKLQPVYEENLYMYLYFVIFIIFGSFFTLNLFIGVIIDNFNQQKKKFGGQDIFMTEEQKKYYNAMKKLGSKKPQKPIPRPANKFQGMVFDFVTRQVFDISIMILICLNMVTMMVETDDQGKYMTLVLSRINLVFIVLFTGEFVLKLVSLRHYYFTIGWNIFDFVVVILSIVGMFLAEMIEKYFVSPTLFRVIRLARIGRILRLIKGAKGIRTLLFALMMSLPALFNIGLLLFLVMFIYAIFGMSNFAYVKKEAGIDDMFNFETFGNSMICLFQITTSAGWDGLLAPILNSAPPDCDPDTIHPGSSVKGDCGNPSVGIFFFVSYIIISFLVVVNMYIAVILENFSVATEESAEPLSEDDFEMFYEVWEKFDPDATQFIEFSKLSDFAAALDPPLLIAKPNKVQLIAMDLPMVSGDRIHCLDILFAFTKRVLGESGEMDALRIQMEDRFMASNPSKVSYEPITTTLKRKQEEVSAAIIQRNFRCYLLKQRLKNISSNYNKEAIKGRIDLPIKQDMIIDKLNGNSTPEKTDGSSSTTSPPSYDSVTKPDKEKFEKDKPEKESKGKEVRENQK
human voltage-gated sodium channel Nav1.3 (human), sequence (Q9NY46 whole entry): as above
human voltage-gated sodium channel Nav1.5 (human), sequence (Q14524 whole entry): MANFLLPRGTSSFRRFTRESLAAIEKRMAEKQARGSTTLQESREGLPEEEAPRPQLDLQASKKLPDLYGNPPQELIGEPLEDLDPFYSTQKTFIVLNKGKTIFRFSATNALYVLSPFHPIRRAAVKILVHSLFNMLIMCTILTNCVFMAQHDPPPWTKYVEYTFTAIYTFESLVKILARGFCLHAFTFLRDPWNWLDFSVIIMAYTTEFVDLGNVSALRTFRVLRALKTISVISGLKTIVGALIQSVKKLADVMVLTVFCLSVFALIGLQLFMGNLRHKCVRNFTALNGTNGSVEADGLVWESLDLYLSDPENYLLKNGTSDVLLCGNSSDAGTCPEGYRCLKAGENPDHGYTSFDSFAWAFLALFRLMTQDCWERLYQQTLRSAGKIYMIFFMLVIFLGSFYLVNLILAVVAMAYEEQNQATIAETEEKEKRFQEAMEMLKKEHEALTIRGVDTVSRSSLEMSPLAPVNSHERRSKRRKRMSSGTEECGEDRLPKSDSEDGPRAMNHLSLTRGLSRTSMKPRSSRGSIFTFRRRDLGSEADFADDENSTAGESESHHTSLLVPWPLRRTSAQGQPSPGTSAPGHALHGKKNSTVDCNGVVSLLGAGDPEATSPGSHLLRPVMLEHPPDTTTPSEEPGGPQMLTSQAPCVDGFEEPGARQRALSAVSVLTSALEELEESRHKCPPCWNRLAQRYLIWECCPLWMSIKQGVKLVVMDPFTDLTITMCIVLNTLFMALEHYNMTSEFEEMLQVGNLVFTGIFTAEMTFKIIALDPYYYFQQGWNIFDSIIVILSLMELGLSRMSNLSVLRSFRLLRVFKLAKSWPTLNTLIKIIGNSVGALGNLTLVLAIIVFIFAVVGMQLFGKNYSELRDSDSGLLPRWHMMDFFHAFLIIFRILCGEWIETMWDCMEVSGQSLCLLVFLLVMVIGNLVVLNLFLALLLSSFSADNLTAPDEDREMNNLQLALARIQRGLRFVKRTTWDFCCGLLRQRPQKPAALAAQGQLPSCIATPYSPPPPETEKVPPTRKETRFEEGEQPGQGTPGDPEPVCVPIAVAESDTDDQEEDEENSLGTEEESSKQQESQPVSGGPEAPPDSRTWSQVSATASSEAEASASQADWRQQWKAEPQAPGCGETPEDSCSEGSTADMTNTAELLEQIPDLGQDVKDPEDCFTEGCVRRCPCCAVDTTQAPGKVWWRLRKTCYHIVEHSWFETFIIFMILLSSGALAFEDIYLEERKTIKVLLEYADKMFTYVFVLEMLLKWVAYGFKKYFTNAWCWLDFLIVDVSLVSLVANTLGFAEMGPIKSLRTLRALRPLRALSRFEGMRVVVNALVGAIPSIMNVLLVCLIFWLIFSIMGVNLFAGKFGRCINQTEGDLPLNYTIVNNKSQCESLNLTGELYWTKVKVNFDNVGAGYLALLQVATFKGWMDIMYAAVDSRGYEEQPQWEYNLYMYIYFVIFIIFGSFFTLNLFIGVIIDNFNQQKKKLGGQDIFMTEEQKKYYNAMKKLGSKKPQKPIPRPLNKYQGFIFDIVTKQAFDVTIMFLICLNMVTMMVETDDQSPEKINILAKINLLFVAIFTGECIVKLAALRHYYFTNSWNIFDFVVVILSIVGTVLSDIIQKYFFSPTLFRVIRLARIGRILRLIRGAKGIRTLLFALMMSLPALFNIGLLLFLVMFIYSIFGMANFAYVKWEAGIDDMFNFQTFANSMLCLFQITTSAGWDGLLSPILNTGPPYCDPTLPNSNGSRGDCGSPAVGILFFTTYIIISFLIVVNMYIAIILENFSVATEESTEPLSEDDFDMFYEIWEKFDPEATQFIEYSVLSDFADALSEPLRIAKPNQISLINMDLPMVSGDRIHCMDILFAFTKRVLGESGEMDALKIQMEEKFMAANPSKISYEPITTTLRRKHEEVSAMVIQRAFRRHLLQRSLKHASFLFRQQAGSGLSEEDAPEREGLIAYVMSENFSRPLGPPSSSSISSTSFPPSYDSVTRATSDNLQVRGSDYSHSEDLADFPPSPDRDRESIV
human Nav1.3 (human), sequence (Q9NY46 whole entry): as the sequence (Q9NY46 whole entry) above

For the substance Ac-GpTx-1(1-34) (peptide), in assay [1], the Nav1.5 Use IC50 (µM), PatchXpress electrophysiology was greater than 10 µM.

For the substance GpTx-1(1-34) (peptide), the IWQ Use Nav1.3 in assay [2], in assay [5], in [6], in assay [15], in assay [18] and in [22] was 0.08 µM each time. The substance further came in with an IWQ Use Nav1.3 in assay [24] of 0.08 µM. Further, the IWQ Use Nav1.5 in assay [3], in [7], in assay [16], in assay [19], in [1] and in assay [25] was 13.1 µM each time. Also, the IWQ Use Nav1.7 in assay [4], in assay [8], in [17], in [20], in assay [23] and in assay [26] was 0.08 µM throughout. The IWQ Use Nav1.3 (µM) (IC50, IonWorks Quattro population patch clamp) in assay [9] and in assay [24] was 0.08 µM each time. Besides, the IWQ Use Nav1.5 (µM) (IC50, IonWorks Quattro population patch clamp) in [10] and in assay [25] was 13.1 µM throughout. For the same substance, the IWQ Use Nav1.7 (µM) (IC50, IonWorks Quattro population patch clamp) in assay [11] and in assay [26] was 0.08 µM each time. Also, the IWQ Use Nav1.3 (µM); IC50 of peak inward current, IonWorks Quattro in [12], in assay [22] and in assay [24] was 0.08 µM throughout. Further, the IWQ Use Nav1.5 (µM); IC50 of peak inward current, IonWorks Quattro in assay [13], in [1] and in assay [25] was 13.1 µM throughout. Further, the IWQ Use Nav1.7 (µM); IC50 of peak inward current, IonWorks Quattro in assay [14], in [23] and in assay [26] was 0.08 µM throughout. In addition, in [21], the IC50, hERG current, PatchXpress counterscreen was greater than 10 µM. This substance yielded an IWQ Use Nav1.3 (µM) [IC50, IonWorks Quattro electrophysiology] with human Nav1.3 (human) of 0.08 µM. The same substance displayed an IC50, peak inward hNav1.3 current, whole cell patch clamp, cells held at -140 mV in assay [22] of 16.8 nM. Further, in assay [22], the IWQ Use Nav1.3 (µM): IC50 of peak inward current block, IonWorks Quattro was 0.08 µM. The IWQ Use Nav1.5 (µM) [IC50, IonWorks Quattro electrophysiology] in the assay with human Nav1.5 (human) is 13.1 µM. For the same substance, the IC50, hNav1.5 current, PatchXpress counterscreen in [1] came to 9.8 µM. Also, the IC50, peak inward hNav1.5 current, whole cell patch clamp, cells held at -140 mV in assay [1] stood at 8.9 µM. For the same substance, the IWQ Use Nav1.5 (µM): IC50 of peak inward current block, IonWorks Quattro in [1] came to 13.1 µM. This substance came in with an IWQ Use Nav1.7 (µM) [IC50, IonWorks Quattro electrophysiology] in the assay with human Nav1.7 (human) of 0.08 µM. In addition, in assay [23], the IC50, peak inward hNav1.7 current, whole cell patch clamp, cells held at -140 mV was determined as 7.4 nM. The substance also gave an IWQ Use Nav1.7 (µM): IC50 of peak inward current block, IonWorks Quattro in assay [23] of 0.08 µM. This substance had an inhibition of NaV1.7 activity, IonWorks Quattro, venom sub-fraction 11 in [23] greater than 90%. For the same substance, in [24], the IWQ Use Nav1.3 (µM): IC50 of peak inward current, IonWorks Quattro was found to be 0.08 µM. Moreover, in assay [24], the Nav1.3 Use IC50 (PatchXpress whole cell patch clamp) is 0.01 µM. Also, the IWQ Use Nav1.5 (µM): IC50 of peak inward current, IonWorks Quattro in assay [25] stood at 13.1 µM. In assay [25], this substance registered a Nav1.5 Use IC50 (PatchXpress whole cell patch clamp) greater than 10 µM. Further, the IWQ Use Nav1.7 (µM): IC50 of peak inward current, IonWorks Quattro in [26] came out at 0.08 µM. In [26], this substance yielded a Nav1.7 Use IC50 (PatchXpress whole cell patch clamp) of 5 nM. In assay [26], this substance came in with a Nav1.7 Use IC50 (µM); PatchXpress whole cell patch clamp electrophysiology of 0.005 µM.

Substance GpTx-1(1-34)-FreeAcid (peptide) yielded an IWQ Use Nav1.3 (µM) (IC50, IonWorks Quattro population patch clamp) in [24] of 0.54 µM. In addition, the IWQ Use Nav1.5 (µM) (IC50, IonWorks Quattro population patch clamp) in assay [25] amounted to 9.44 µM.

For GpTx-2 (peptide), the IWQ Use Nav1.3 in assay [18] amounted to 1.15 µM. This substance also registered an IWQ Use Nav1.5 in [19] of 7.21 µM. Also, the IWQ Use Nav1.7 in assay [20] is 4.34 µM.

The substance GpTx-3 (peptide) displayed an IWQ Use Nav1.3 in assay [18] of 9.37 µM. For the same substance, the IWQ Use Nav1.4 in assay [27] amounted to 20 µM. In [19], this substance displayed an IWQ Use Nav1.5 of 7.8 µM. Moreover, the IWQ Use Nav1.7 in [20] was determined as 8.93 µM.

Regarding GpTx-4 (peptide), the IWQ Use Nav1.3 in [18] was determined as 4.92 µM. The same substance came in with an IWQ Use Nav1.4 in [27] of 11 µM. In [19], this substance gave an IWQ Use Nav1.5 of 10.4 µM. The substance further gave an IWQ Use Nav1.7 in [20] of 9.25 µM.

Regarding GpTx-6(1-34) (peptide), the IWQ Use Nav1.3 in assay [18] stood at 0.54 µM. The substance also came in with an IWQ Use Nav1.4 in assay [27] of 4.1 µM. The same substance returned an IWQ Use Nav1.5 in assay [19] of 7.3 µM. In [20], this substance yielded an IWQ Use Nav1.7 of 1.3 µM.

Take GpTx-6(1-35) (peptide): in assay [18], the IWQ Use Nav1.3 came out at 1.7 µM. In [27], this substance registered an IWQ Use Nav1.4 of 17.4 µM. In assay [19], this substance yielded an IWQ Use Nav1.5 of 14.6 µM. Further, the IWQ Use Nav1.7 in assay [20] was determined as 9.6 µM.

The substance Huwentoxin-I (peptide) returned a Nav1.3 Use IC50 (PatchXpress whole cell patch clamp) in [24] of 0.905 µM. Also, in assay [28], the Nav1.4 Use IC50 (PatchXpress whole cell patch clamp) stood at 24.9 µM. The substance further came in with a Nav1.5 Use IC50 (PatchXpress whole cell patch clamp) in assay [25] greater than 30 µM.

Regarding Huwentoxin-IV (peptide), the Nav1.3 Use IC50 (PatchXpress whole cell patch clamp) in assay [24] came out at 0.022 µM. This substance also gave a Nav1.4 Use IC50 (PatchXpress whole cell patch clamp) in assay [28] of 4.5 µM. The same substance showed a Nav1.7 Use IC50 (PatchXpress whole cell patch clamp) in assay [26] of 32 nM.

Substance ProTxII (peptide) registered a Nav1.3 Use IC50 (PatchXpress whole cell patch clamp) in [24] of 0.015 µM. Moreover, in assay [28], the Nav1.4 Use IC50 (PatchXpress whole cell patch clamp) worked out at 0.032 µM. In addition, the Nav1.5 Use IC50 (PatchXpress whole cell patch clamp) in assay [25] was 0.104 µM. In assay [26], this substance displayed a Nav1.7 Use IC50 (PatchXpress whole cell patch clamp) of 2 nM.

In assay [18], “[Ala5;Phe6;Leu26;Arg28]GpTx-1(1-34) (peptide)” displayed an IWQ Use Nav1.3 (µM); IC50 of peak inward current, IonWorks Quattro of 0.04 µM. The same substance gave an IWQ Use Nav1.4 (µM); IC50 of peak inward current, IonWorks Quattro in assay [27] of 5 µM. The substance further gave an IWQ Use Nav1.5 (µM); IC50 of peak inward current, IonWorks Quattro in assay [19] of 5 µM. In assay [20], this substance showed an IWQ Use Nav1.7 (µM); IC50 of peak inward current, IonWorks Quattro of 0.05 µM. The same substance returned a Nav1.3 Use IC50 (PatchXpress electrophysiology) in [24] of 0.008 µM. This substance also had a Nav1.5 Use IC50 (PatchXpress electrophysiology) in assay [25] greater than 10 µM. The same substance had a Nav1.7 Use IC50 (PatchXpress electrophysiology) in [26] of 0.002 µM.

Substance [D-Phe5]GpTx-1(1-34) (peptide) registered an IWQ Use Nav1.7 (µM): IC50 of peak inward current, IonWorks Quattro in assay [23] of 1.23 µM.

In [15], [D-Phe34]GpTx-1(1-34) (peptide) returned an IWQ Use Nav1.3 of 0.52 µM. In addition, the IWQ Use Nav1.5 in [16] was 20.7 µM. In addition, the IWQ Use Nav1.7 in assay [17] was found to be 0.98 µM.
